Patent publication US20100266586A1

B1: RHD5 (human monoclonal antibody from the lymphoblastoid cell line RHD5) (antibody, V domains shown)
VH: QVQLVQSGAEVKKPGSSVMVSCKASGGTFSSFGISWVRQAPGQGLEWVGGIIPIFGTANTARNFQNRVTITADEFTSTAYIRLRSLRSEDTAVYYCVGGRDAYSFDGFDVWGQGTMVTVSSASTKGPSVFP
VL: SSGLTQPHSVSVSPGQTANITCSRDKLGHKFASWYQQKPGQSPALLIYQDSKRPSGIPERFSGSNSGNTATLTISGTQAMDEADYYCQAWDNTTAVFGGGTKLTVLSQPKAAPSVTLFPPS
B2: Krix-1 (human monoclonal antibody KRIX-1 produced in a human lymphoblastoid cell line, native glycosylation) (antibody, human IgG4, V domains shown)
VH: QVQLVQSGAEVKKPGASVKVSCKTSGYNFTGYSASGHIFTAYSVHWVRQAPGQGLEWMGRINPNSGATDYAHKFQGRVTMSRDTSISTAYMELSRLTSDDTAMYYCARADNYFDIVTGYTSHYFDYWGRGTLVTVSSASTKGPSVF
VL: EIVLTQSPGTLSLSPGERATLSCRASQSVASAYLAWYQQKPGQAPRLLIYGASSRATDIPHRFSGSGSGTDFTLTISRLEPEDFAVYYCQQYGTSALLTFGGGTKVEIKRTVAAPSVFIFPPS
modifications: here or on the partner: N-linked glycosylation site at Asn47-Thr49, native glycan as made by the lymphoblastoid cell line
B3: deglycosylated KRIX-1 (Krix-1 treated with N-glycosidase-F) (antibody, IgG4, V domains shown)
VH: B2 VH
VL: B2 VL
modifications: here or on the partner: N-linked glycan removed by N-glycosidase-F (2 U/ml, 72 h, 37 C)

Assays:
[1] = molecular target: FVIII in a pool of normal human plasma (human), P00451; test: cell-based or functional assay
[2] = molecular target: full length recombinant FVIII (Recombinate, Baxter), P00451; test: cell-based or functional assay
full length recombinant FVIII (Recombinate, Baxter), P00451, sequence (P00451 20-2351): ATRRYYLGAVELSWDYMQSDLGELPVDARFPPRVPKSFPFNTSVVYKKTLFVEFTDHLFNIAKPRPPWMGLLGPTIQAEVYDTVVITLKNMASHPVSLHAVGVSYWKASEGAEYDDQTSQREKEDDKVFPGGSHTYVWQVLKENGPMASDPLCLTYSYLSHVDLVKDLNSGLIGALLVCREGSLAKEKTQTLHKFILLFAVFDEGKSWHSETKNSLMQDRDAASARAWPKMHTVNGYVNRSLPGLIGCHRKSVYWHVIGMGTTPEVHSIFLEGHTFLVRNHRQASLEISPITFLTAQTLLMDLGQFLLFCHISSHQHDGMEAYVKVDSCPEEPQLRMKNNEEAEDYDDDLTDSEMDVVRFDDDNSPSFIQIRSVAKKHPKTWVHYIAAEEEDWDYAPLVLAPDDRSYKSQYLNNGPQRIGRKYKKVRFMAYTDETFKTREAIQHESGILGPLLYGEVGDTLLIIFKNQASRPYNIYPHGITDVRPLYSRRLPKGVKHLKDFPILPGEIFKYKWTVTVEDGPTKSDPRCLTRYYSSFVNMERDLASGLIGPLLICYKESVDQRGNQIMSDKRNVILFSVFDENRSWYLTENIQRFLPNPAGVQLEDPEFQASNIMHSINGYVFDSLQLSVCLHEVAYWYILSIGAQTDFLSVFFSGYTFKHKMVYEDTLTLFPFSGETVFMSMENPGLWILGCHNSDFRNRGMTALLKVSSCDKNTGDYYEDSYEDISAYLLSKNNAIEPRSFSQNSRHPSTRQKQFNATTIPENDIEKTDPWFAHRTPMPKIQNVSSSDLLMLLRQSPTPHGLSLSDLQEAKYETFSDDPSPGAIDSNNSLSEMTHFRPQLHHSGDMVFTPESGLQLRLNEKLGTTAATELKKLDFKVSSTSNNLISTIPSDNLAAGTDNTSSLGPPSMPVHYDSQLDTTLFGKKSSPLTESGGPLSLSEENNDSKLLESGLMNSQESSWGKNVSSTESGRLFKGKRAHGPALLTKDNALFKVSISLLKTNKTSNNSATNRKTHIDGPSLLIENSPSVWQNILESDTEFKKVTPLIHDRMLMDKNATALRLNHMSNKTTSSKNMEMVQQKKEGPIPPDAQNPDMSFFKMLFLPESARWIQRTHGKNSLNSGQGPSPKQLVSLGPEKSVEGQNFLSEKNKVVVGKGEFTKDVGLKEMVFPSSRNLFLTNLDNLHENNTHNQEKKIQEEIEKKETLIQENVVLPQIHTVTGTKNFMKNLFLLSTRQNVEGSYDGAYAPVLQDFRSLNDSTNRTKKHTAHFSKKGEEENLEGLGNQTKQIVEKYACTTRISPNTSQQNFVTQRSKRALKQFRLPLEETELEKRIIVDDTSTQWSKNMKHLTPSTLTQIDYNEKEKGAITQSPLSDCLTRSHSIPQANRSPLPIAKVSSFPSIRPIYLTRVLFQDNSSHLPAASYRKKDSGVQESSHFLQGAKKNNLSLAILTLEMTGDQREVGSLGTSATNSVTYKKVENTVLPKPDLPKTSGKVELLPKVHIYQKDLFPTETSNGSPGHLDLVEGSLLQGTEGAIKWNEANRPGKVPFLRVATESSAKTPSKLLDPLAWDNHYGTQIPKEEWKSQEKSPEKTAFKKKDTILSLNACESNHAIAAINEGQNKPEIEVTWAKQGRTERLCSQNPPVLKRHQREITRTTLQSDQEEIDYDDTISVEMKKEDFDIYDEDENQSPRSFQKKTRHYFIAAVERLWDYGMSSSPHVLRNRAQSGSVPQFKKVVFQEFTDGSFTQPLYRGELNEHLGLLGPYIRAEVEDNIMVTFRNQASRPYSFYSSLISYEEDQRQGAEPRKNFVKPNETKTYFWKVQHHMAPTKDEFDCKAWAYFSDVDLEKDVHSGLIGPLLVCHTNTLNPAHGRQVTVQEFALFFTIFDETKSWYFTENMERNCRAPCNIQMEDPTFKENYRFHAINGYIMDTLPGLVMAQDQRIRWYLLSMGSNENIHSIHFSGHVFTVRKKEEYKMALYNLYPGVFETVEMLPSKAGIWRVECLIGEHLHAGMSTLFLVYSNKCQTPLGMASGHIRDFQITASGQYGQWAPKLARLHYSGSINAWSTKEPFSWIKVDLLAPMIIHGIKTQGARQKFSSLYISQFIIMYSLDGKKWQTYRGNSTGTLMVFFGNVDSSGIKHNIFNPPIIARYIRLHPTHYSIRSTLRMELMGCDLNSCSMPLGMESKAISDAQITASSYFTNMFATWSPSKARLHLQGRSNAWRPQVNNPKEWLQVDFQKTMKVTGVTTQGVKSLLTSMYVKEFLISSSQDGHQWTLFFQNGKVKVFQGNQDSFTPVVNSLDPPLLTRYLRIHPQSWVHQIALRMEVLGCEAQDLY

FVIII in a pool of normal human plasma (human), P00451, sequence (P00451 20-2351): as above

Row | Binder | inhibition of FVIII activity at a final concentration of RHD5 of 100 microgram/ml (Bethesda assay, plasma) [1] | inhibition of FVIII activity at a final concentration of RHD5 of 100 microgram/ml (Bethesda assay, full length recombinant FVIII) [2] | inhibition of FVIII activity (chromogenic assay, normal human plasma) [1] | maximal inhibition of FVIII activity (Bethesda assay, chromogenic FVIII assay) [1] | maximal inhibition (plateau inhibition) of FVIII activity (Bethesda assay, chromogenic FVIII assay) [1]
1 | B1 | 97% | 98% |  |  | 
2 | B2 |  |  | 90% | 90% | 
3 | B3 |  |  | 50% |  | 50%
